In patent US20230013244A1 (BioIncept, LLC, priority 2014, published 2023):

What was measured:
Assay in all cases: PIF affinity column + LC-MS/MS, CD14+ cell lysate
Vimentin (human) = Vimentin (human) (UniProt P08670)
[1] = molecular target: Isoform 2 of Ras suppressor protein 1 (human) (UniProt Q15404)
[2] = molecular target: Isoform Short of 14-3-3 protein beta/alpha (human) (UniProt P31946)
Tropomodulin-3 (human) = Tropomodulin-3 (human) (UniProt Q9NYL9)
[3] = molecular target: Tubulin alpha-4A chain (human) (UniProt P68366)
Plastin-2 (human) = Plastin-2 (human) (UniProt P13796)
Filamin-A (human) = Filamin-A (human) (UniProt P21333)
[4] = molecular target: Tropomyosin alpha-4 chain (human) (UniProt P67936)
[5] = molecular target: Histone-binding protein RBBP7 (human) (UniProt E9PC52)
[6] = molecular target: Isoform SV of 14-3-3 protein epsilon (human) (UniProt P62258)
Protein S100-A8 (human) = Protein S100-A8 (human) (UniProt P05109)
[7] = molecular target: Isoform 2 of Adenylyl cyclase-associated protein 1 (human) (UniProt Q01518)
[8] = molecular target: 78 kDa glucose-regulated protein (human) (UniProt P11021)
Talin-1 (human) = Talin-1 (human) (UniProt Q9Y490)
Thrombospondin-1 (human) = Thrombospondin-1 (human) (UniProt P07996)
Coronin-1A (human) = Coronin-1A (human) (UniProt P31146)
[9] = molecular target: 14-3-3 protein zeta/delta (human) (UniProt P63104)
Chain of 14-3-3 protein zeta/delta (human) (P63104 whole entry, stated change not applied): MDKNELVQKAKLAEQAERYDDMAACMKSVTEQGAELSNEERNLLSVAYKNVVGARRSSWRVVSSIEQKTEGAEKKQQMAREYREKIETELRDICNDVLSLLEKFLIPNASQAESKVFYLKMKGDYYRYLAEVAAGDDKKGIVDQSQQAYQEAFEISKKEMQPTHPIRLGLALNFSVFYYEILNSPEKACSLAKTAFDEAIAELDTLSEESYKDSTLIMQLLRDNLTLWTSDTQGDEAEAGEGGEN

Annexin A1 (human) = Annexin A1 (human) (UniProt P04083)
[10] = molecular target: Nuclear autoantigenic sperm protein (human) (UniProt P49321)
[11] = molecular target: Actin, cytoplasmic 2 (human) (UniProt P63261)
[12] = molecular target: Lymphocyte-specific protein 1 (human) (UniProt P33241)
Thymosin alpha-1 (human) = Thymosin alpha-1 (human) (UniProt P06454)
Chain of Thymosin alpha-1 (human) (P06454 other isoform, or with tags, fused parts or gaps limits assumed): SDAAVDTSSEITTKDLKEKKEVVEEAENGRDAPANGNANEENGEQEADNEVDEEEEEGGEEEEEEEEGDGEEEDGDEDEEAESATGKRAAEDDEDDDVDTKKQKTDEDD

[13] = molecular target: Heat shock protein HSP 90-beta (human) (UniProt P08238)
Chain of Heat shock protein HSP 90-beta (human) (P08238 2-724 limits assumed): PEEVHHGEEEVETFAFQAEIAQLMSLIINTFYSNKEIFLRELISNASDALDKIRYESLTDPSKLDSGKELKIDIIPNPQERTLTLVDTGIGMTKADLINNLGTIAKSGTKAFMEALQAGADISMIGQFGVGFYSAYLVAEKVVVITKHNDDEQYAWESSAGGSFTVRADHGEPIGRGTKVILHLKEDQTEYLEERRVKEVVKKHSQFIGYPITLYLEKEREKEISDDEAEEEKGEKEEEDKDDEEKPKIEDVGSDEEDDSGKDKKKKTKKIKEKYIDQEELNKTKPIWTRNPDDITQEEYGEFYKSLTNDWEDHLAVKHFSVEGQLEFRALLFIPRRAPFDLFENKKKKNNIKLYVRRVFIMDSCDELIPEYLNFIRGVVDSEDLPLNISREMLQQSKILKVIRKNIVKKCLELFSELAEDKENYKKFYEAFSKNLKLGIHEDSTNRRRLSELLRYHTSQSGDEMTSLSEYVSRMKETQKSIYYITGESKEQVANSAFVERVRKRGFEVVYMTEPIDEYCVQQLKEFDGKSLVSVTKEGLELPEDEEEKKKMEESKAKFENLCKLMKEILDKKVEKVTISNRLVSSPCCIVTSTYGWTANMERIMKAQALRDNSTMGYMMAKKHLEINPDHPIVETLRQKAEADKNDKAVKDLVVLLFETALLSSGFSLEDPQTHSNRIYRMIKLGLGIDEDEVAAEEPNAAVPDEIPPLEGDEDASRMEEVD

Gelsolin (human) = Gelsolin (human) (UniProt P06396)
[14] = molecular target: Protein disulfide-isomerase A4 (human) (UniProt P13667)
[15] = molecular target: Actinin alpha 1 isoform 3 (human) (UniProt P12814)
Chain of Actinin alpha 1 isoform 3 (human) (P12814 other isoform, or with tags, fused parts or gaps): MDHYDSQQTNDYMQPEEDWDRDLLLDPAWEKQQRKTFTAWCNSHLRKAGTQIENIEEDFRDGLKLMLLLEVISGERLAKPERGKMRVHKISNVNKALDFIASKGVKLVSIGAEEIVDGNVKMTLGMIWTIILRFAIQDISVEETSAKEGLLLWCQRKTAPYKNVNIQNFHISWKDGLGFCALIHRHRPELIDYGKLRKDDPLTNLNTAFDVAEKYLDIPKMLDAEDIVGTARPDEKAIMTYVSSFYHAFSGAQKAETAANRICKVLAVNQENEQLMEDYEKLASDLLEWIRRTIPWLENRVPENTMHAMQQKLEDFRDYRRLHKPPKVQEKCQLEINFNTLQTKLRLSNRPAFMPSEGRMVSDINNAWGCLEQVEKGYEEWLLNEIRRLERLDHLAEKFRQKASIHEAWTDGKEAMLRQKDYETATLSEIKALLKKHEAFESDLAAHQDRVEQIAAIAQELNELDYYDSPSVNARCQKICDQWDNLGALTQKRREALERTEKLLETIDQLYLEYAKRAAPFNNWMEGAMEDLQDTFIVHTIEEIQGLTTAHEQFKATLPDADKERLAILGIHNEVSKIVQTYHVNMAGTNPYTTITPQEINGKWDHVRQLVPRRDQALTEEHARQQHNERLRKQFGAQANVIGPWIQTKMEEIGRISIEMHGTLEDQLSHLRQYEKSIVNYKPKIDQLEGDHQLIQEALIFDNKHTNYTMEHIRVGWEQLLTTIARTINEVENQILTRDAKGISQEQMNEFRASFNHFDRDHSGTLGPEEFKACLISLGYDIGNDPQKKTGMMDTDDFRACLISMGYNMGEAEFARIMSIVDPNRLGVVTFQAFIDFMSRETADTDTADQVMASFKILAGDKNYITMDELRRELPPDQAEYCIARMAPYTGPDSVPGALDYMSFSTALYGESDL

[16] = molecular target: Bridging integrator 2 (human) (UniProt Q9UBW5)
Chain of Bridging integrator 2 (human) (Q9UBW5 whole entry): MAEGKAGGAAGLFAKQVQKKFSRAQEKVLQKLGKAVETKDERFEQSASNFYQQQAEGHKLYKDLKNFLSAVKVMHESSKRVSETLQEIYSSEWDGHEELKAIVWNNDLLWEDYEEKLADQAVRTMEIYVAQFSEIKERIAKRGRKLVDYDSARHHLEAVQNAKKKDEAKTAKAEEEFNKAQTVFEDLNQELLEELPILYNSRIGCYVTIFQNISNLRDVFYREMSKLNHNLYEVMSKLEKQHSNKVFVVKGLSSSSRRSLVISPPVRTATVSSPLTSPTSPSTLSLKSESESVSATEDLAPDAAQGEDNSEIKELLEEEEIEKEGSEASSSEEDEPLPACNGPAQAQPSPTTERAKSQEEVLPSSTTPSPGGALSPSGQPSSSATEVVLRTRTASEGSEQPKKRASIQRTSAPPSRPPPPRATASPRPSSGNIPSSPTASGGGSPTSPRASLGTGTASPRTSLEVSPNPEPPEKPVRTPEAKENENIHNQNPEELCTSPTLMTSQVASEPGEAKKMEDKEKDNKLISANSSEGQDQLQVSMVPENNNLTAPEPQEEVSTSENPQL

Myosin-9 (human) = Myosin-9 (human) (UniProt P35579)
Chain of Myosin-9 (human) (P35579 2-1960 limits assumed): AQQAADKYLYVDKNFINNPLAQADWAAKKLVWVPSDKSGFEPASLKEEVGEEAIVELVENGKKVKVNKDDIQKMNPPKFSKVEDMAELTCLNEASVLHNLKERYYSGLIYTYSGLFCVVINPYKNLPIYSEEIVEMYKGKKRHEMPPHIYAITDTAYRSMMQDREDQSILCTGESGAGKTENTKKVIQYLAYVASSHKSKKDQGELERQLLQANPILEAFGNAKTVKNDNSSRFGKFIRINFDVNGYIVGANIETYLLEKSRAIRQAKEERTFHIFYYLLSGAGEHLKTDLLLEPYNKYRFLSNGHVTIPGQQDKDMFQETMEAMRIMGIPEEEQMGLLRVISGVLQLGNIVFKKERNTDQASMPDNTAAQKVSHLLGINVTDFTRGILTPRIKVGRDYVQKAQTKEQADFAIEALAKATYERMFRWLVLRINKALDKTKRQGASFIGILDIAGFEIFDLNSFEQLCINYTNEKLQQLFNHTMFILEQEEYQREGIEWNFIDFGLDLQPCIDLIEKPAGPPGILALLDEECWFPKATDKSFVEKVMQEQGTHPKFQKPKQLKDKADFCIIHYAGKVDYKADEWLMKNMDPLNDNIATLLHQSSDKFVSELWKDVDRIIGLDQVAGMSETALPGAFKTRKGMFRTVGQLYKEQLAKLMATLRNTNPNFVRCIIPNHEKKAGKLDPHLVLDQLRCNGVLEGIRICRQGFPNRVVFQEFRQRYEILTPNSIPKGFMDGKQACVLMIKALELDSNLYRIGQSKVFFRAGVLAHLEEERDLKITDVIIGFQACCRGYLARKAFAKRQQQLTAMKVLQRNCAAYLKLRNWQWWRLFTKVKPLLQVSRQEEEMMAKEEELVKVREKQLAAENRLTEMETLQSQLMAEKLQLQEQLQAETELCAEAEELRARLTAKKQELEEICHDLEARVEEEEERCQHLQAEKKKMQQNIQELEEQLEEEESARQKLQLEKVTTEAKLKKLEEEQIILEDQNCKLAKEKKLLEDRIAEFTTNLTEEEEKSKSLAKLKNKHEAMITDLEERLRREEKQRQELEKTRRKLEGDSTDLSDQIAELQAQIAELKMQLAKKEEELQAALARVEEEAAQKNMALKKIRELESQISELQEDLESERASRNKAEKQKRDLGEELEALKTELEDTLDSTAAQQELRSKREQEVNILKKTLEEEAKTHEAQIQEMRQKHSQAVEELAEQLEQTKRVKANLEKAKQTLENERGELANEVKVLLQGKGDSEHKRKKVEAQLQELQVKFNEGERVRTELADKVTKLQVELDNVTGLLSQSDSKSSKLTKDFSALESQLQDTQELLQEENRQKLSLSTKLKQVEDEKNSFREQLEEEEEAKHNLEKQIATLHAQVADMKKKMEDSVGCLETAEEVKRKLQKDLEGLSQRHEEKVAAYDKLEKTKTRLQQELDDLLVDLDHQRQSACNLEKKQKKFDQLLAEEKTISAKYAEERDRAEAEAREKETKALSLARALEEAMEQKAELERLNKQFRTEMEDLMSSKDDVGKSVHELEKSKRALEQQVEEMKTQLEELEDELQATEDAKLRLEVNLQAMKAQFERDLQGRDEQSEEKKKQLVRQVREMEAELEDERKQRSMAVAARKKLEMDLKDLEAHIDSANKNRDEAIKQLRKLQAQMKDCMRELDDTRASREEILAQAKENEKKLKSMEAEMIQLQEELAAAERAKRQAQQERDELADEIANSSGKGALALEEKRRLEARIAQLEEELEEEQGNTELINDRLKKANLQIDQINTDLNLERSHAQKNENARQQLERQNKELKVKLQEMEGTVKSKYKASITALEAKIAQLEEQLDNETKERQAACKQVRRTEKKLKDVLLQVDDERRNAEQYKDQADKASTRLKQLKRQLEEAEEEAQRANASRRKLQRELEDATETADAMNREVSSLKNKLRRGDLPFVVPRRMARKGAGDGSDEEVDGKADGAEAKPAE

Endoplasmin (human) = Endoplasmin (human) (UniProt P14625)
[17] = molecular target: Tropomyosin alpha-3 chain (human) (UniProt P06753)
[18] = molecular target: 14-3-3 protein eta (human) (UniProt Q04917)

Chain of Vimentin (human) (P08670 2-466 limits assumed): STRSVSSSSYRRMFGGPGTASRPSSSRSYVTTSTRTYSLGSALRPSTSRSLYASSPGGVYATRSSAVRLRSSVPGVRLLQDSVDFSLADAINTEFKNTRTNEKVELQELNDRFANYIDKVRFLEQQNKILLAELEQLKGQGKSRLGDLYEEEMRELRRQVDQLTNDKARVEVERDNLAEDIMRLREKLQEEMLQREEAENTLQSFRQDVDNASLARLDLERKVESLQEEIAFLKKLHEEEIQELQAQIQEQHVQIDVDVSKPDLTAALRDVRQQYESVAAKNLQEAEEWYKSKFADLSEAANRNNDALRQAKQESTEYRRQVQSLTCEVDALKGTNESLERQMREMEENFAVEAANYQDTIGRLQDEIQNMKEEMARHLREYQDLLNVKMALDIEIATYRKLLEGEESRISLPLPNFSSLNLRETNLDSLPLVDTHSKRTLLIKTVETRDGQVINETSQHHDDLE

In the case of “PIF-resin (PIF15 affinity ligand on agarose) (peptide)”, the Ave (Vimentin (human)) is reported as 10, the Inject 1 (Vimentin (human)) is reported as 9 and the Inject 2 (Vimentin (human)) is reported as 11. For the same substance, the Inject 3 (Vimentin (human)) was 9, the Ave [1] was 1 and the Inject 1 [1] was 0. It also gave an Inject 2 [1] of 1, an Inject 3 [2] of 4 and an Ave (Tropomodulin-3 (human)) of 1. It also gave an Inject 1 (Tropomodulin-3 (human)) of 1, an Inject 3 (Tropomodulin-3 (human)) of 1 and an Inject 3 [3] of 1. For the same substance, the Ave (Plastin-2 (human)) was 1, the Inject 1 (Plastin-2 (human)) was 1 and the Inject 2 (Plastin-2 (human)) was 1. It also gave an Ave (Filamin-A (human)) of 5, an Inject 1 (Filamin-A (human)) of 5 and an Ave [4] of 8. It also gave an Inject 1 [4] of 8, an Inject 3 [4] of 8 and an Ave [5] of 1. The Inject 2 [5] was 0, the Inject 3 [5] was 1 and the Inject 1 [6] was 4. It also gave an Inject 2 [6] of 4, an Inject 2 (Protein S100-A8 (human)) of 1 and an Inject 1 [7] of 4. The Ave [8] was 4, the Inject 1 (Talin-1 (human)) was 5 and the Inject 3 (Talin-1 (human)) was 8. The Inject 2 (Thrombospondin-1 (human)) was 5, the Inject 3 (Thrombospondin-1 (human)) was 8 and the Inject 3 (Coronin-1A (human)) was 1. The Ave [9] was 4, the Inject 1 [9] was 4 and the Inject 3 [9] was 4. For the same substance, the Ave (Annexin A1 (human)) was 1, the Inject 1 (Annexin A1 (human)) was 0 and the Inject 2 (Annexin A1 (human)) was 0. The Ave [10] was 1, the Inject 2 [10] was 0 and the Inject 3 [10] was 1. It also gave an Ave [11] of 7, an Inject 1 [11] of 6 and an Inject 2 [11] of 7. It also gave an Inject 3 [11] of 7, an Inject 1 [12] of 4 and an Inject 3 [12] of 1. It also gave an Ave (Thymosin alpha-1 (human)) of 5, an Inject 1 (Thymosin alpha-1 (human)) of 5 and an Inject 2 (Thymosin alpha-1 (human)) of 5. For the same substance, the Inject 3 (Thymosin alpha-1 (human)) was 4, the Ave [13] was 1 and the Inject 2 [13] was 1. It also gave an Inject 3 [13] of 1, an Inject 2 (Gelsolin (human)) of 1 and an Inject 3 (Gelsolin (human)) of 1. For the same substance, the Inject 1 [14] was 4, the Inject 2 [14] was 1 and the Ave [15] was 4. The Inject 1 [15] was 5, the Inject 2 [15] was 4 and the Ave [16] was 1. It also gave an Inject 1 [16] of 1, an Inject 3 [16] of 0 and an Ave (Myosin-9 (human)) of 10. The Inject 1 (Myosin-9 (human)) was 11, the Inject 2 (Myosin-9 (human)) was 9 and the Inject 3 (Myosin-9 (human)) was 10. It also gave an Ave (Endoplasmin (human)) of 1, an Inject 1 (Endoplasmin (human)) of 0 and an Inject 3 (Endoplasmin (human)) of 1. For the same substance, the Ave [17] was 4, the Inject 1 [17] was 4 and the Inject 3 [17] was 5. The Ave [18] was 1, the Inject 1 [18] was 1 and the Inject 2 [18] was 1.
